Experimental data from patent EP2718312B1 (TLA Targeted Immunotherapies AB, dated 2018).
Bridges are numbered along the chain shown (N, C = ends). The star is where a group is joined. Biotin = O=C1N[C@H]2[C@H](CS[C@H]2CCCCC(=O)*)N1

T1: hCCR2b (human, UniProt P41597 1-374)
T1 chain: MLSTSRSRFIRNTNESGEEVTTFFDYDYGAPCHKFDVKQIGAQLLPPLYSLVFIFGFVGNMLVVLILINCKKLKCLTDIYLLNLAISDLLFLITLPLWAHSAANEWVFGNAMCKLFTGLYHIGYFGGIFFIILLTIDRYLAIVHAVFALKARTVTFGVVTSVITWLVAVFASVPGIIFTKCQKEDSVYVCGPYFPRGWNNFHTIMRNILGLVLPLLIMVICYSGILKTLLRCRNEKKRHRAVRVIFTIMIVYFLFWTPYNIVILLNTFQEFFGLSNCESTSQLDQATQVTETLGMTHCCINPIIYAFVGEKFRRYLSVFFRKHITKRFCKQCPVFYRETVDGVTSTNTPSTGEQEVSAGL


Columns and labels:
hCCR5 = hCCR5 (human, UniProt P51681 1-352); assay: cell-based or functional assay
Sequence of hCCR5 (P51681 whole entry): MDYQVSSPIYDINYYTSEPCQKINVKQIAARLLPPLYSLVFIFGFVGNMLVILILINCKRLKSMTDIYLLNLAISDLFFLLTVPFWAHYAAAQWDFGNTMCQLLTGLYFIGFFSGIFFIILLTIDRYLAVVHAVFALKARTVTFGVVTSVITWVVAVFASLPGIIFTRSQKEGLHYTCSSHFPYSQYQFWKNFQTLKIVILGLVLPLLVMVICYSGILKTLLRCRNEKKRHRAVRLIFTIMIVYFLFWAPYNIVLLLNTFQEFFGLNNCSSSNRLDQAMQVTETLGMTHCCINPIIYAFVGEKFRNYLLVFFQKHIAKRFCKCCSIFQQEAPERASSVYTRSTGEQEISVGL

hCCR2b = target: T1, hCCR2b; assay: cell-based or functional assay

Binder | EC50, agonist activity in an Aequorin assay (hCCR5) [nM] | EC50, Aequorin assay (partial agonist) (hCCR2b) [nM]
biotinRANTES (CCL5) (ligand, disulfide 10-34, 11-50; also: TFA salt) SPYSSDTTPCCFAYIARPLPRAHIKEYFYTSGKCSNPAVVFVTRKNRQVCANPEKKWVREYINSLEK(Biotin)S-OH | 0.5 | 
recombinant native MCP-2 (ligand, human, UniProt P80075 24-99, looked up) QPDSVSIPITCCFNVINRKIPIQRLESYTRITNIQCPKEAVIFKTKRGKEVCADPKERWVRDSMKHLDQIFQNLKP |  | 23.5
